The text below walks through data of patent US20240277770A1, “SYSTEMS AND METHODS TO IDENTIFY MHC-ASSOCIATED ANTIGENS FOR THERAPEUTIC INTERVENTION” (GENENTECH, INC., priority 2021, published 2024).

The target in the assay is recombinant conditional HLA-A*02:01 complex (human). The experiment in a line: TR-FRET peptide exchange / HLA complex stability assay. Particulars: remark: other sources report otherwise.

B1: … (peptide)
peptide: HMTEVVRHC
modifications: here or on the partner: biotinylated (BirA)
On to B1, for which the RZ-score came out at 3.9.
